T1: Nogo-A (Homo sapiens (Human), UniProt Q9NQC3 1-1192)
T1 sequence: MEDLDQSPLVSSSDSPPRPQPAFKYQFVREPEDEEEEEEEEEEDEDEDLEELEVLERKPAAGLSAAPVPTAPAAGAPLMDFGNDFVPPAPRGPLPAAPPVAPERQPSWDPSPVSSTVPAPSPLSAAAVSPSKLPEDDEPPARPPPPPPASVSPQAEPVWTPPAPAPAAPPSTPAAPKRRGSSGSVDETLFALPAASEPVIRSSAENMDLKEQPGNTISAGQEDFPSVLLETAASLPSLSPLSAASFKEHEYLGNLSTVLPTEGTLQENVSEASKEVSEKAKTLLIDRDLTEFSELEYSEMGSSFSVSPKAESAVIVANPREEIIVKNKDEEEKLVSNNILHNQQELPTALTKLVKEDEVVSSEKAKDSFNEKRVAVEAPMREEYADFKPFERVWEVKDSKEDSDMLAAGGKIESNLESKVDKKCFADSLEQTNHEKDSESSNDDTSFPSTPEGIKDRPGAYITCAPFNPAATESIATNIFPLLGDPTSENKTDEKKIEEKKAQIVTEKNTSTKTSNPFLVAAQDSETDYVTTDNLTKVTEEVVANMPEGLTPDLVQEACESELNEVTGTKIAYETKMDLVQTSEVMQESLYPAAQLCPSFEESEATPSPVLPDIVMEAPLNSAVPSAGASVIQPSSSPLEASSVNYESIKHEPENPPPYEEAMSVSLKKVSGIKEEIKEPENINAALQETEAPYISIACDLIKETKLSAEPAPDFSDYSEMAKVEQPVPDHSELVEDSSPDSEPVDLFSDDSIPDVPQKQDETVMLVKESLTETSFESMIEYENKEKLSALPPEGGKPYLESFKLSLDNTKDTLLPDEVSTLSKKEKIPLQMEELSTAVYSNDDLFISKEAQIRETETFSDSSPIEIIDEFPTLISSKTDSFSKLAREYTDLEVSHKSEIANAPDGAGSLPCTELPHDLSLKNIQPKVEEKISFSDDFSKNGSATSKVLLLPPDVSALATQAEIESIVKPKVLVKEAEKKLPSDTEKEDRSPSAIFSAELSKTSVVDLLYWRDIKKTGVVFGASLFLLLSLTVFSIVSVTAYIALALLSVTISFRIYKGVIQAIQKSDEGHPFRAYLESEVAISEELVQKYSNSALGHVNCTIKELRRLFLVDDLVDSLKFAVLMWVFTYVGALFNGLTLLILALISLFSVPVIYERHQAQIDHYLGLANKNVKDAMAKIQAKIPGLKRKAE

B1: Asp2/BACE-myc (enzyme, not shown: small tags and cut ends)
chain: ETDEEPEEPGRRGSFVEMVDNLRGKSGQGYYVEMTVGSPPQTLNILVDTGSSNFAVGAAPHPFLHRYYQRQLSSTYRDLRKGVYVPYTQGKWEGELGTDLVSIPHGPNVTVRANIAAITESDKFFINGSNWEGILGLAYAEIARPDDSLEPFFDSLVKQTHVPNLFSLQLCGAGFPLNQSEVLASVGGSMIIGGIDHSLYTGSLWYTPIRREWYYEVIIVRVEINGQDLKMDCKEYNYDKSIVDSGTTNLRLPKKVFEAAVKSIKAASSTEKFPDGFWLGEQLVCWQAGTTPWNIFPVISLYLMGEVTNQSFRITILPQQYLRPVEDVATSQDDCYKFAISQSSTGTVMGAVIMEGFYVVFDRARKRIGFAVSACHVHDEFRTAAVEGPFVTLDMEDCGYNIPQTDESTLMTIAYVMAAICALFMLPLCLMVCQWRCLRCLRQQHDDFADDISLLK
notes: It was transiently transfected into SHSY5Y-APPswe cells; also called BACE/Asp2

Experiments:
Asp2/BACE-myc = target: B1; experiment: co-localisation by immunofluorescence in double-transfected SHSY5Y-APPswe cells
Text: (§1) cDNAs encoding Nogo isoforms were transfected into cultured SHSY5Y-APPswe cells and expressed proteins detected in fixed cells with immunohistochemistry. Asp2 was detected using a c-terminal myc epitope (FIG. 3A left panel) while the Nogo-A (FIG. 3A right panel) and B isoforms were detected using isoform specific rabbit polyclonal antibodies (designated 67 and 66 respectively or monoclonal Anti-Nogo-A 6D5 as indicated in the figure legends). These experiments confirm that it is possible to overexpress these proteins in this cellular background and can be used as the basis of an assay for modulators of Nogo influenced APP processing.

Nogo-A = target: T1, Nogo-A; experiment: as above
Text: as §1

binding result (Asp2/BACE-myc)	binding result (Nogo-A)	Binder
binds		NogoB (ASY) (other) MEDLDQSPLVSSSDSPPRPQPAFKYQFVREPEDEEEEEEEEEEDEDEDLEELEVLERKPAAGLSAAPVPTAPAAGAPLMDFGNDFVPPAPRGPLPAAPPVAPERQPCWDPSPVSSTVPAPSPLSAAAVSPSKLPQDDEPPARPPPPPPASVSPQAEPVWTPPAPAPAAPPSTPAAPKRRGSSGSVVVDLLYWRDIKKTGVVFGASLFLLLSLTVFSIVSVTAYIALALLSVTISFRIYKGVIQAIQKSDEGHPFRAYLESEVAISEELVQKYSNSALGHVNCTIKELRRLFLVDDLVDSLKFAVLMWVFTYVGALFNGLTLLILALISLFSVPVIYERHQAQIDHYLGLANKNVKDAMAKIQAKIPGLKRKAE
	binds	B1

Reference: patent US20040132096A1 (GlaxoSmithKline, published 2004)
